Here are results for 20 sequences from the DeepSol protein solubility set.

The data set is described as follows: soluble on expression in E. coli; label from the status in PepcDB or PDB records.
In the case of “TMIAIKPTKLKDFSSLMQLDVQEEQIGFAKPFEQAYQKRNKSEVFFTIYSDYLTVGYLIIDKGFAQHAPFAMRHELGLNYLMIDRRFQRQGIGAEALKKLFVYAYTIDPESTSLCVTVPNSHQGALDFFLACGFTNTEKAIYGEQEKEWLMRHPL”, the “soluble on expression in E. coli” value is reported as “not soluble”. Regarding “DITLSKLAMGGKPTPFGLDESELSNALMLLRDCPQVSLKGFHFHLMSHQLDVERHLALMQRYFQVVKTWQQEFELGELMINLGGGMGINYQNPEQHFPWMEFCDKLEFLIAKEQVQDWTLRFECGRFITAACGYYVMEVLDIKQNLGESYVIARGGTHHFRTPAAQSHDHPFVILKSEQHHEISHPIQHAQATFVGQLCTPKDVLARNQHVAHVDIGDYVVFTLAGAYAWNISHQNFLMHEPPIFHYF”, the “soluble on expression in E. coli” value was “not soluble”. Regarding “MGSDKIHHHHHHIRMKINLGVVGAGIASRELHLPALRKLSDLFTVVAVNSRTRKKAEEFAGIVGGDVRVFDSYEEMLSSDSVDAVVLAVPISLNPKMIIAARRANKPVICEKPVAASVKEAVPLLRLPGSSPVYIAENYRHIEVYEKAAELLKEGRIGIPLAFSWLKWVDFGQDNKYVQTKWRQTPEHVGGFISDGGVHDVAALRKTLGDVEEVSGFTKKSLDYLGAENCVVFNMTLENGVIGNYSVVYGAASPLNRFEIVGTDGLMLVDKDGATIEIFAADREKIFVNKTDGFIEEFRDFYNVVEGEKNSLGTVGEALLDLATIEAGLVSAVEKRVVAVDSLLEES”, the “soluble on expression in E. coli” value was “not soluble”. In the case of “MIPLSIRVPASTANVGPGFDSVGIALSLYLHVVVKEKSDKWQVIHSFEDSIPTDDKNLIVSTACKVCPSLSPHIIEVTSNIPLTRGLGSSASAIVAGIELANQLGKLNLTIDQKVQIATNFEGHPDNVAASILGGTVIGALDGKNVSVVRIESKELGVISLIPNEELNTDESRSVLPDVFPFHEAVKASAISNVLVAALCQKKWKVVGEMMERDHFHEPYRLELVPLLPSIRKCAKEFGAYGTALSGAGPSIFILTPYEKRQEIAEQLARVFTSMKVCELEIDHRGITVNKKEHIGL”, the “soluble on expression in E. coli” value is on record as “not soluble”.

For “MRKKPLTIFSDGTLTRRENTLYFESAKGRKPLAIEGIYDIYIYGHVNITSQALHYIAQKGILIHFFNHYGYYDGTFYPRETLLSGDLIIRQAEHYLNKEKRLFLAKSFVTGGTKNMERNLKNWGIKAKLSDYLDELNDARKITEIMNVEARIRQEYYAKWDENLPEEFKIVKRTRRPPKNEMNALISFLNSRLYATIITEIYNTQLAPTISYLHEPSERRFSLSLDLSEIFKPIIADRVANRLVKKGSLKKEHFREDLNGVLLTEEGMKIVTKAYNEELQKSVKHPKIGSNVTRQRLIRLEAYKLIKHLVGVEEYKPLVAWF”, the “soluble on expression in E. coli” value was “soluble”.

“MIVNKPQFDENELGEGTAVQVTSGNPFGRPNYSNNKHDWNAVVVEFSPLMISVAGYNKEEHDRVETMNITIDSIVKEHVTLKKLVVELPKIQCEAGPEND”: the “soluble on expression in E. coli” value is “not soluble”.

In the case of “MSLSKVRYGVVSTAKVAPRFIEGVRLAGNGEVVAVSSRTLESAQAFANKYHLPKAYDKLEDMLADESIDVIYVATINQDHYKVAKAALLAGKHVLVEKPFTLTYDQANELFALAESCNLFLMEAQKSVFIPMTQVIKKLLASGEIGEVISISSTTAYPNIDHVTWFRELELGGGTVHFMAPYALSYLQYLFDATITHASGTATFPKGQSDSQSKLLLQLSNGVLVDIFLTTRLNLPHEMIIYGTEGRLIIPHFWKTTHAKLVRNDTSARTIQVDMVSDFEKEAYHVSQMILEGQRVSHIMTPQLTLSGVKIIEDLYRSWGKEGHHHHHH”, the “soluble on expression in E. coli” value is on record as “soluble”. With “GSSCPGKSSWPHLVGVGGSVAKAIIERQNPNVKAVILEEGTPVTKDFRCNRVRIWVNKRGLVVSPPRIG”, the “soluble on expression in E. coli” value is “soluble”. For “MGSDKIHHHHHHMSYRYNSVVDLIHKQISAGTLKVGDRLPSIRQLSLLTGFSTVTIHHAYELLESHGYCSARPRSGFYLVRTPLQQMGDFPHDGENSIEPISIVDFPHALLLSWQKRTLDAFGAPHPSADLFDCADVDRVMCRLLRRRKAIAANSVGGDPELRLQIAKRAAQRGVVTRPQDIVITGSAIQAFNLCLDALTDPGDVVLVESPSYFPALSSIKRRNLRVIEIYSHPVNGIDPDQLEHLVRNNEIRVAVLMASNHFPTGITYSEDRMKRIVSVAKKNDVTIIANSMLDDITYDSVTDNSLRKFDSGETVLQFSSFECGLSPQYGLGWIVAGKHSQKILAASYLGDYAPNDQRIQQAVAEYLSSRSHDRQLRRIRETLASRMERGLQLLADSLPTGCSVSRPTGGYMCWVRGPQKFTSMTAVLQLHKQNVSILPGSVFSAAARSFENFFALNLSFPWSAENEAKIGSIGDLIAQIVGR”, the “soluble on expression in E. coli” value was “not soluble”.

Regarding “MSDPSSINGGIVVAMTGKDCVAIACDLRLGSQSLGVSNKFEKIFHYGHVFLGITGLATDVTTLNEMFRYKTNLYKLKEERAIEPETFTQLVSSSLYERRFGPYFVGPVVAGINSKSGKPFIAGFDLIGCIDEAKDFIVSGTASDQLFGMCESLYEPNLEPEDLFETISQALLNAADRDALSGWGAVVYIIKKDEVVKRYLKMRQD”, the “soluble on expression in E. coli” value was “soluble”. Then “MGSDKIHHHHHHMTVHHHHHTHHVSLHKIKKLFSKHSSHGHKLTRDEARSALHDIEHLAKELHFQKVFDHHAHDGHISLKGFLSFISPHHGHHTHHAHGAHPGHHEVHHHHHHVKAQDSSSSSSSSSSSSSSSSSSSSSSSSSSSESEDEKHHHKKHAKKHLKKHHKKAESSSSSSSSSSSSSSSSSSSSSSESEDEKHHHKKHAKKHLKKHHKKAESSSSSSSSSSSSSSSSSSSSSSSESEDEKHHHKKHAVKKHHKKAESSSSSSSSSSSSSSSSSSEDEKHHHKKHAAKKHVKHHKKAASSSSSSSSSSSSSSSSSSSSSSESEDEKKKKKVHHKKSHGKKHHKKAASSSSSSSSSSSSSSSSSSSESEDEKKHAPAHHEHHEHKDGAHHEHKEGEHHEHAAHHDEHGVHHRHHGEHHGTHHSPAHHGEHGTHHGHHGEHHHAPAHHGHHESHGHGHHSPAHHGHHGEHHHAPAHHGHHGEHHHAPAHHGHHGEHGTHHGHHGSHHSPAHHGHHGEHHHAPAHHGHHGEHGTHHGHHGEHHHAPAHHGHHGEHGTHHGHHGSHHSPAHHGHHGEHHHAPAHHGHHGHHGSHGVHHGHHESHGHGHHAPAHHGHHGEHGVHHGHHGAGYGAHHGHHGAHHHHAPHHEHHEHHGDHHHGSHGVHHGHHGTHHSLAHHGHHGGHGTHHGAHHSPAHHGHHGAHHEHGAHHGAHHGHHDDKENHHHHGHHSKHSKKQHTKKSHKKSH”, with “not soluble”; and “MSAALVAQQVATLREQGFVVVRNFASPPVRQALRELALQHLAQTVDPVEYEADLKYPGAPSSRLAAGGQTVRRLLDAYGRDQRFRDWATQAAIGAFLRAYFQDTPVLSTVHHNCIMTKHPAFGSLTGWHQDIRYWSFSDDDLVSCWLALGDERADNGGLYFVPGSHTASFMPEQYDARKFFRDDLPQNQEWIGRAVCPELQAGDVVFFHCRTLHAARQNATDTVKLSLVHTYHPASCHPLPGTRSAGSPGVPLPLEHHHHHH”, with “soluble”. “MSLILKRVYIDFEMNMPNSKSKRAVFNSDIIAIGAVMYDEKTKNIDKFKSLIRPVSNEELYPHIQELTHISSEELKSAPSYEEVMRKFKKWLGIFSDIKGIYTFGNLDLTCFNNTDMRSAKKNNHPRFVNNIRDLFVDIKEKYINCGMRCMNYISLKNLLEFVNLEFSGDAHDPLNDAYNLFILDEAITNNVDIQNLLIIRDIIRPPFNDINSNLDNCFNKFKESLYKKEGNYNIVDFSVEIIKTVRMYLLTIIDVNIQNLEIMKDISKKMDTIDKLKDIEEGYFYLLEDVYFDMKDVLEDLMLYRMNEDEYKYEIKNIIKMFDEDLDNEKIYINKCNNLNVVNKEGHHHHHH”: the “soluble on expression in E. coli” value is “not soluble”. In the case of “MGSDKIHHHHHHVTEPLKFQWCDRLGDLPREDWNAIAQPLATPFLEWDWLHDLEASGSVIAKAGWQPCHLVVWRGDRLVAAAPLYLKGHSYGEFVFDQQWADLAGRLGLRYYPKLLGMTPLTPAVGYRFLIAPAEDEATLTGLMLREIDRFCDNNQILSCNFLYVDPDWQPLVEAAGYSAWQHHNSVWQNRGFRTFDDYLGMFNANQRRNIKREVKSMERAGLTLTCLSGDQIPRDYFPLMYRFYSDHCDKFGWWGSKYLTRDFFDRAMHHSRHRLLFVAATPEGSDRPIAMSFCVHKGDRLYGRYWGCDHEIDNLHFNVCYYKPIEWAIANGIQSFDPGAGGSHKKRRGFPATPNWSLHRWYQPRFGQILGTWLRQVNELESQEIEAINAELPFSRPEVPLN”, the “soluble on expression in E. coli” value is given as “not soluble”.

On to “MESQLPKFLKEPEKYSRLRLLEALQELYLSIEMLKEGYSRNSASKLFLSWKALLSSIVVTNFGKIMETKKKEGKEDEIKWYMRIGYSAPTTGLIGIARDLENLGFKGLVNLTTAMLGIHRYAYNGLDEDISPFHSRSEAIISIKGLIKAEVEIVGSMKFGDEEKELFEKIKRELNNILEHHHHHH”, for which the “soluble on expression in E. coli” value is “not soluble”. Then “MTVIQTHGLTKRYGRVVAVEDLNLSVREGEVYGLLGPNGSGKTTTILMLLGLTEPTSGEARVLGFDPMREPLKVKSRVGYLPDQVGFYGELSAWENLRYTTRLLGLPDKEAEARIEEVLKRMGLWEVRDRKVAAFSRGMRQRLGLAEVLLKRPKVAILDEPTLGLDPEAAREFLDLIKGLKAEGITVLLSSHLLHQVQEVCDRVGLFHKGRLALEGTVAELAHRVLGGQYEILLEGAPGLEGALEAVEGVSRVEAEGGRYRVLATRDLRPELARLVVERGPLYALSLRQPSLDEIYAHYFKEVAHAA”, with “soluble”; and “MTTATSERQKTLLFKAAERQWKEEFAGKETDIRKVDCNIYKGILYQLEIRQVFLDTSLSLKKLSALLETNQTYLSNVVNKYFGCNLKELVNTYRVEYAKELLCSRRCALTELPCSCGFASKSAFYSAFSRIVGVSPLSYQTQERRLEHHHHHH”, with “soluble”.

“MGSDKIHHHHHHMLKITFLGTNGWFDSNTGNTPSVLIEHRNYYIILDAGNGISKLRNCISSDKPVYLFLSHFHLDHISGLHTLPLNKFSKGLYIIVPKGGTKLINQFVNVPFTVPIKKLPFKTEIIEACNKLNFLPFKATFLPLVHSSYVLGIRLEIDSKTISYCTDTSYCFNAITLAKNADLLISECSMKPLGTDDASVHLNPELASKIAKEAGAKKLMLIHFDAAKYLTLDDRKKAELAAKTIFNNSYASYDDLELQV”: the “soluble on expression in E. coli” value is recorded as “not soluble”. Then “MGSDKIHHHHHHMEKEFRILNIVSAKIWGGGEQYVYDVSKALGLRGCTMFTAVNKNDELMRRRFSEVSSVFTTRLHTFNGLFSLYALTRFIRENHISHLMIHTGKIAALSVLLKKLTGVRLIFVKHNVVANKTDFYHRLIQKNTDRFICVSRLVYDVQTADNPFKEKYRIVHNGIDTGRFPPSQEKPDSRFFTVAYAGRISPEKGLENLIEACVILHRKYPQIRLKLAGHGHPDYMCRLKRGVSASGAEPFVSFEGFTEKLASFYRQSDVVVLPSLVPEAFGLSLCEAMYCRTAVISNTLGAQKEIIEHHQSGILLDRLTPESLADEIERLVLNPEAKNALATAGHQCVAARFTINHTADKLLDAI”, with “not soluble”; and “MGSDKIHHHHHHMKLKYVLYMAAALSLTGCNDSFLERGPQNLNDQSFWISVNDLKAYANAFYGLIPGGVSVLDDTDSDIQVPNDINSFLWGQYVVPTEGGVWQKSNWQNIRNINYFMTHYQSVQAAEADVNIYVAEMRFFRALEYFNKIQLLGDVPWLEVDLNVDSEELYGPKMKRNQVFQKIIEDLDFAIQWLPEAGSEEANRLNKDIARHVKARFCLNEGTHYKYHDELEYASEAEKWLQMAATESDKLITSGRYEIYNTGHPQEDYFNMYRIDDKSDLKEAVLYVDYKTNIREHNMAAAGREAGCGFSKSFVESFLCSDGLPISLSNKYLGDETMRKETANRDPRLKQLILTNDFPTNVTDDLKDSTFVVNEDEFITQHCFTGYRPIKGFNPIYSQALYMKSSFDGIAYRYAETLLINAEAKAELNTITNADLDRTVNQLRDRVGMPHLTVM”, with “not soluble”.
